Values after ≈ are worked out from the molar mass of the structure shown.

In one data set the test system is O=CC(O)CO. Nature of the data set: purified protein. To be noted: no extract, 0.15 mM NADPH, DL-glyceraldehyde 5-25 mM, 100 mM sodium phosphate pH 6.2.
The target in data set [1] is T1, SD (sorbitol dehydrogenase).
T1 construct: gene SORD; purchased from Sigma-Aldrich; human recombinant cannot be excluded
Nature of the data set: absorbance change at […] nm (NAD+ reduction). The data set is classed as biochemical. The conditions noted are these: 0.5 mM NAD+, 100 mM sorbitol, 100 mM Tris-HCl pH 9.0.

Data set [2] has as its system T1, SD (sorbitol dehydrogenase). Nature of the data set: absorbance change at […] nm, Lineweaver-Burk. The data set is classed as biochemical. The conditions noted are these: no extract; 0.5 mM NAD+, sorbitol 50-250 mM, 100 mM Tris-HCl pH 9.0.

Usually Km stands for the substrate concentration at which the rate is half of its maximum. The term Vmax denotes the rate approached at saturating substrate. As for “human recombinant AR (aldose reductase) (Homo sapiens)”, in the data set with O=CC(O)CO, the Km was 5.51 mM and the Vmax is 0.069 µM/min.
By IC50 is commonly meant the concentration that gives 50% inhibition. With `O=c1c(O)c(-c2ccc(O)c(O)c2)oc2cc(O)cc(O)c12` [quercetin], the “IC50” value in data set [1] is 8.14 ± 2.27 µg/mL (≈ 26.9 µM).
Regarding `OC[C@@H](O)[C@@H](O)[C@H](O)[C@@H](O)CO` [sorbitol], in data set [2], the Km came out at 44.7 mM.

Source of the values: PMC11701329, “Inhibition of the polyol pathway by Ducrosia anethifolia extract: plausible implications for diabetic retinopathy treatment” (Frontiers in Pharmacology, 2024).
